Data reported in publication PMC2650008.

Target: T1, PpPutA45 (Pseudomonas putida, UniProt Q9R9T7 1-45)
T1 chain: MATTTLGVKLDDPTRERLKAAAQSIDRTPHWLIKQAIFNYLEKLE
Test: EMSA

B1: O2-12 (dsDNA)
DNA 1: GCGGTTGCACCT
DNA 2: AGGTGCAACCGC
binding result: no binding
